Measured values: US20110015139A1 (HE HENRY M JACKSON FOUNDATION FOR THE ADVANCEMENT OF …, published 2011)

Biological target: amyloid beta (Aβ) peptide, incorporated in membranes as the Aβ channel
Assay: cell-based or functional assay

## SGYEVHH [NA4]
  EC50 of protection of PC12 cells from Aβ cytotoxicity (LDH release), as a multiple of the EC50 of NAHIS04: 2 to 3 times

## EVHHQKL [NA7]
  EC50 of protection of PC12 cells from Aβ cytotoxicity (LDH release), as a multiple of the EC50 of NAHIS04: 2 to 3 times

## Ac-HHHH-NH2 [NAHIS04 (Ac-His-His-His-His-CONH2)]
  concentration required for 50% protection (EC50) of PC12 cells from Aβ cytotoxicity, LDH release assay, 3 days: < 1000 nM
  speed of 50% reduction of the flow of ionic charges, relative to NAHIS02: 8 fold
